The record followed here is PMC8515915 (Genome Medicine, 2021).

The target of the test is T1, SARS-CoV-2 RBD wildtype, soluble fragment 319-591 with C-terminal 8 × His tag (SARS-CoV-2, UniProt P0DTC2).
T1 construct: source: ExpiCHO-S, transient, purified (His Trap Excel)
As to the kind of experiment: BLI. To be noted: both partners purified.

B1: CB6 (antibody, V domains shown)
VH: EVQLVESGGGLVQPGGSLRLSCAASGFTVSSNYMSWVRQAPGKGLEWVSVIYSGGSTFYADSVKGRFTISRDNSMNTLFLQMNSLRAEDTAVYYCARVLPMYGDYLDYWGQGTLVTVSS
VL: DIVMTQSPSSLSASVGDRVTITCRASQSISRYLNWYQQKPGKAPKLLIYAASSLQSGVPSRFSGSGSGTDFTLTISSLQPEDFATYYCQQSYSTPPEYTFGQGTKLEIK
notes: source: ExpiCHO, heavy and light chain plasmids cotransfected, purified (Protein A)
In the case of B1, the Kd worked out at 10.7 nM.
